These results are taken from the RNAGym collection of RNA variant scans (doi:10.1093/molbev/msab373).

Sequences and labels used below:
B1: Azoarcus group I ribozyme (parent)
chain: GUGCCUUGCGCCGGGAAACCACGCAAGGGAUGGUGUCAAAUUCGGCGAAACCUAAGCGCCCGCCCGGGCGUAUGGCAACGCCGAGCCAAGCUUCGGCGCCUGCGCCGAUGAAGGUGUAGAGACUAGACGGCACCCACCUAAGGCAAACGCUAUGGUGAAGGCAUAGUCCAGGGAGUGGCGAAAGUCACACAAACCGG

In this data set the parent is B1. Description: reverse-splicing fitness (ratio to wild type); higher = more active; in vitro selection; Mg2+ level not given. Put shortly: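 An in vitro group I ribozyme library with randomized positions was T7-transcribed and gel-purified. In triplicate, 10 pmol RNA in EPPS pH 7.5 was reacted with 50 pmoles of a 30-nt RNA substrate for 1 h at 37 °C across several added MgCl2 levels (1–48 mM), then stopped with EDTA. Products were reverse transcribed from a substrate-complementary primer, PCR-amplified and sequenced (HiSeq 4000). Fitness is a variant's read proportion after selection over that before, normalised to wild type.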
Regarding A111G A120C A145G C169U, the reverse-splicing fitness was found to be 0.254.
A111G A120C A145G C169A: the reverse-splicing fitness was 0.0165.
On to A111G A120G A145U C150A C169U U176A, for which the reverse-splicing fitness was 0.0273.
In the case of A111G A120G A145U C150A C169U U176C it was 0.0198.
In the case of A111G A120G A145U C150A C169U U176G it was 0.00518.
The same measure for A111G A120G A145C C150G C169A: 0.0226; for A111G A120G A145C C150G C169G: 0.0368.
For the variant A111G A120G A145C C150G C169U, the reverse-splicing fitness turned out to be 0.0356.
On to A111G A120G A145U C169G U176A, for which the reverse-splicing fitness amounted to 0.0761.
In the case of A111G A120G A145G C150G C169G U176C it was 0.0117; in that of A111G A120G A145G C150G C169G U176G, 0.0054.
The same measure for A111G A120G A145G C150G C169G U176A: 0.00945; for A111G A120C C150A C169A U176A: 0.0158.
In the case of A111G A120C C150A C169A U176C, the reverse-splicing fitness turned out to be 0.0167.
In the case of A111G A120C C150A C169A U176G, the reverse-splicing fitness stood at 0.00468.
The same measure for A111G A120G A145G C169G U176C: 0.134; for A111G A120G A145G C169G U176A: 0.0887; for A111G A120G A145G C169G U176G: 0.00622.
For the variant A111G A120G A145U C150A C169A U176C, the reverse-splicing fitness came to 0.015.
Turning to A111G A120G A145U C150A C169A U176G, the reverse-splicing fitness was 0.00504.
The same measure for A111G A120G A145U C150A C169A U176A: 0.0157; for A111G A120G A145G C150G: 0.0366.
In the case of A111G A120G A145G C150A it was 0.0452; in that of A111G A120G A145G C150U, 0.244; in that of A111G A120C C150A U176A, 0.0735.
On to A111G A120C C150A U176C, for which the reverse-splicing fitness was 0.0799.
In the case of A111G A120C C150A U176G it was 0.0222; in that of A111G A120G A145C C150A C169A U176A, 0.0135.
The same measure for A111G A120G A145C C150A C169A U176G: 0.00399.
Consider A111G A120G A145C C150A C169A U176C, for which the reverse-splicing fitness turned out to be 0.00695.
The same measure for A111G A120G A145C C169G U176C: 0.0984; for A111G A120G A145C C169G U176A: 0.079; for A111G A120G A145C C169G U176G: 0.00658.
In the case of A111G A120G A145C C150G C169U U176G it was 0.00502.
The same measure for A111G A120G A145C C150G C169U U176C: 0.0162.
A111G A120G A145C C150G C169U U176A: the reverse-splicing fitness was 0.0176.
The same measure for A111G A120C A145U C150A C169A U176G: 0.00401; for A111G A120C A145U C150A C169A U176A: 0.0107; for A111G A120C A145U C150A C169A U176C: 0.00676.
Regarding A111G A120G A145U C150U C169U, the reverse-splicing fitness was 0.157.
The same measure for A111G A120G A145U C150U C169A: 0.114; for A111G A120G A145U C150U C169G: 0.206; for A111G A120G A145U C150A C169A: 0.018.
On to A111G A120G A145U C150A C169U, for which the reverse-splicing fitness came to 0.0268.
In the case of A111G A120G A145U C150A C169G it was 0.0305; in that of A111G A120C C150A C169U, 0.0403; in that of A111G A120C C150A C169G, 0.00862.
On to A111G A120C C150A C169A, for which the reverse-splicing fitness stood at 0.00922.
The same measure for A111G A120G A145C C150A C169G U176C: 0.0168; for A111G A120G A145C C150A C169G U176G: 0.00542; for A111G A120G A145C C150A C169G U176A: 0.0264.
In the case of A111G A120G A145C C150U C169A U176A it was 0.0171.
The same measure for A111G A120G A145C C150U C169A U176G: 0.00411; for A111G A120G A145C C150U C169A U176C: 0.0168; for A111G A120C A145U C150G C169A U176G: 0.00414.
As to A111G A120C A145U C150G C169A U176A, the reverse-splicing fitness was found to be 0.00723.
In the case of A111G A120C A145U C150G C169A U176C it was 0.00745; in that of A111G A120G A145C C150U C169G, 0.088; in that of A111G A120G A145C C150U C169U, 0.0714.
The same measure for A111G A120G A145C C150U C169A: 0.0431; for A111G A120C U176A: 0.47; for A111G A120C U176G: 0.125.
In the case of A111G A120C U176C it was 0.522; in that of A111G A120G A145C C150A C169U, 0.0192; in that of A111G A120G A145C C150A C169G, 0.0196.
Turning to A111G A120G A145C C150A C169A, the reverse-splicing fitness is 0.0124.
In the case of A111G A120C A145U C150A C169G it was 0.00748; in that of A111G A120C A145U C150A C169U, 0.033.
In the case of A111G A120C A145U C150A C169A it was 0.00758; in that of A111G A120C A145U C150A C169G U176C, 0.011.
In the case of A111G A120C A145U C150A C169G U176A it was 0.0144; in that of A111G A120C A145U C150A C169G U176G, 0.00393; in that of A111G A120G A145C C150U C169U U176G, 0.00645.
Consider A111G A120G A145C C150U C169U U176A, for which the reverse-splicing fitness was determined as 0.0353.
In the case of A111G A120G A145C C150U C169U U176C it was 0.0306.
In the case of A111G A120G A145G C150G C169A U176C, the reverse-splicing fitness was 0.0143.
As for A111G A120G A145G C150G C169A U176G, the reverse-splicing fitness stood at 0.00709.
For A111G A120G A145G C150G C169A U176A, the reverse-splicing fitness worked out at 0.0122.
In the case of A111G A120G A145G C150U C169U U176C it was 0.0831.
For the variant A111G A120G A145G C150U C169U U176A, the reverse-splicing fitness stood at 0.0625.
With A111G A120G A145G C150U C169U U176G, the reverse-splicing fitness stood at 0.00628.
The same measure for A111G A120G: 0.3; for A111G A120C C150U: 0.528; for A111G A120C C150G: 0.0783.
